Measurements from publication PMC12805836.
Values joined by “and” are separate entries in the source; they are usually repeats but may differ in a detail not shown here. Identical values can stand only once.

How the values were obtained:
[1] = biological target: actinorhodopsin (ActR, ActRL06) from Nanopelagicus ca., produced in E. coli (Nanopelagicus ca.); test: SEC; analytical size-exclusion chromatography of ActR at the neutral pH of the scramblase assays
[2] = biological target: actinorhodopsin (ActR, ActRL06) from Nanopelagicus ca., produced in E. coli (Nanopelagicus ca.); test: negative stain electron microscopy; ActR from E. coli, purified through the metal affinity step, in elution buffer with DDM, pH 7.4, 8-240 ug/mL on grids, 2% uranyl acetate; preliminary single particle analysis
[3] = biological target: actinorhodopsin (ActR, ActRL06) from Nanopelagicus ca., produced in E. coli (Nanopelagicus ca.); test: SEC; analytical size-exclusion chromatography of ActR at low pH

Q: What does the source list for “actinorhodopsin (ActR, ActRL06) from Nanopelagicus ca., produced in E. coli (natural protein)”?
A: stoichiometry N [1]: 5 and 3; stoichiometry N [2]: 5; stoichiometry N [3]: 3
